# Article PMC10641069, “Intra- and inter-molecular regulation by intrinsically-disordered regions governs PUF protein RNA binding” (Nature Communications, 2023)
# Where two headings read alike, the source gives them in different places.
# T1: FBF-2 RBD (Caenorhabditis elegans, UniProt Q09312)
# T1 construct: The FBF-2 RBD protein (residue 164-575) was purified as described previously; His6-SUMO (N, cleaved yes); made in house; host or cells: E. coli BL21-CodonPlus (DE3)-RIL (host inferred: b50 says the procedure was otherwise the same as for RBD + CT)
# T1 sequence (Q09312 whole entry, looked up): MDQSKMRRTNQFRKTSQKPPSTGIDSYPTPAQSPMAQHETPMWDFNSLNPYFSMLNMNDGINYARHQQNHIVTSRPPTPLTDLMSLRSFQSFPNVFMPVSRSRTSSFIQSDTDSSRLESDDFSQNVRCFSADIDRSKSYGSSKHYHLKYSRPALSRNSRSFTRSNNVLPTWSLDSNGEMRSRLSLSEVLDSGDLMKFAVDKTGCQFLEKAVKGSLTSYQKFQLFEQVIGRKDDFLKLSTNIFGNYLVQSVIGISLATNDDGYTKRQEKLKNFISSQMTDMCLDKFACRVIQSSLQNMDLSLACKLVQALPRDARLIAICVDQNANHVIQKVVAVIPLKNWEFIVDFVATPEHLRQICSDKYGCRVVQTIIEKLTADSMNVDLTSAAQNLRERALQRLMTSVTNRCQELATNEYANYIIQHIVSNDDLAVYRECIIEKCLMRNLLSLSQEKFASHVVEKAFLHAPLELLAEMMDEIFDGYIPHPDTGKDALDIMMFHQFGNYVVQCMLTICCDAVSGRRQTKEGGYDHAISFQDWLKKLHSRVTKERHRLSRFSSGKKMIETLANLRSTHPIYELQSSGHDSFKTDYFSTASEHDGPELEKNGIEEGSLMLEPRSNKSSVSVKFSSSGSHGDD
# T2: FBF-2 RBD+CT L610A;LST-1 B peptide (Caenorhabditis elegans;Caenorhabditis …, UniProt Q09312;P91820 164-632;67-98, L610A|)
# T2 sequence 1: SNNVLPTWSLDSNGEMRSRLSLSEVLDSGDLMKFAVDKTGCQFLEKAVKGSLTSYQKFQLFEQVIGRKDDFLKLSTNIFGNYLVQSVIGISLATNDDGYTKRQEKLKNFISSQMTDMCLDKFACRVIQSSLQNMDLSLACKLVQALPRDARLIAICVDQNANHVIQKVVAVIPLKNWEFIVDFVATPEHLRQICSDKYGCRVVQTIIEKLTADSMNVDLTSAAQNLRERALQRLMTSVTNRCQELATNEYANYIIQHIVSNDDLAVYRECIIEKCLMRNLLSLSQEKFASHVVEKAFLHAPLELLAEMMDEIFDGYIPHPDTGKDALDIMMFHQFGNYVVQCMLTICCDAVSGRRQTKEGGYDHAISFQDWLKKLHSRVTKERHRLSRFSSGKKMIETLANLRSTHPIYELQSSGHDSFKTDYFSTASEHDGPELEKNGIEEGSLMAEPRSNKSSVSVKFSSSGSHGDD
# T2 sequence 2: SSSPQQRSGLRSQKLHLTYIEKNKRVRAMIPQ
# T3: FBF-2 RBD+CT;LST-1 B peptide (Caenorhabditis elegans;Caenorhabditis …, UniProt Q09312;P91820 164-632;67-98, |)
# T3 sequence 1: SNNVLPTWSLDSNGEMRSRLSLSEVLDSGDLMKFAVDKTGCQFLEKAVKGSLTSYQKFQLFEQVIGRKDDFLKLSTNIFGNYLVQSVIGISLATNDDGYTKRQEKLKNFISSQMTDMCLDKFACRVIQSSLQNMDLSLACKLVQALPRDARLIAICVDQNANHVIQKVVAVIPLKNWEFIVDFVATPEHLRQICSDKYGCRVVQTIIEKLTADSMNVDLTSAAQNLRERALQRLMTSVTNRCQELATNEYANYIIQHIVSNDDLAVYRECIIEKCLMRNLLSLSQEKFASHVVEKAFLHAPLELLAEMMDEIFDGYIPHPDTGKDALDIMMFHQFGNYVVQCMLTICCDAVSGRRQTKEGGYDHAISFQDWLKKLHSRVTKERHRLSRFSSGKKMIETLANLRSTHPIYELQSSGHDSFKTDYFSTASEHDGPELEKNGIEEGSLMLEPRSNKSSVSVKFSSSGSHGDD
# T3 sequence 2: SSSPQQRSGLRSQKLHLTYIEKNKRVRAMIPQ
# What was measured:
# FBF-2 RBD = target: T1, FBF-2 RBD; settings: reported previously, cited from earlier work
# Text: Given that the core residues of three distinct PIMs—FBF-2 CT, LST-1 A, and LST-1 B—all bind to the same site of FBF-2, we hypothesized that the intramolecular FBF-2 CT binding could compete with LST-1 A and LST-1 B binding. To assess that idea, we investigated how the CT affects the protein interaction affinities of the FBF-2 RBD to LST-1 A and LST-1 B, using isothermal titration calorimetry (ITC, Supplementary Table 3). No RNA was included in these experiments. We first measured the binding affinity of an isolated CT peptide and the FBF-2 RBD (no CT), by titrating the peptide, FBF-2^601–632, ... || Fig. 2 The FBF-2 CT competes with partner proteins for binding to the RBD. Representative isothermal titration calorimetry thermograms (top, differential power [DP] vs time) and corresponding titration curve-fitting graphs (bottom) are shown for interaction between a FBF-2 RBD and FBF-2 CT, c FBF-2 RBD + CT and LST-1 A, d FBF-2 RBD + CT and LST-1 B, e FBF-2 RBD and FBF-2 CT L610A, f FBF-2 RBD + CT L610A and LST-1 A, and g FBF-2 RBD + CT L610A and LST-1 B. Data points on the curve-fitting graphs are shown as open circles. b Previously reported mean Kd from two independent replicates with simila ... || We next compared the protein interaction affinities of LST-1 A or LST-1 B with either FBF-2 RBD + CT or RBD alone (Fig. 2c–g, Supplementary Table 3). For these experiments, we titrated the LST-1 peptide into an ITC cell containing either RBD + CT or RBD.
# [1] = target: T2, FBF-2 RBD+CT L610A;LST-1 B peptide; experiment: EMSA; 50 uM LST-1 B; EMSA: FBF-2 in 20 mM HEPES pH 7.4, 150 mM NaCl, 0.5 mM TCEP mixed 1:1 with 5 nM final RNA in 10 mM HEPES pH 7.4, 0.01% Tween 20, 0.1 mg/ml BSA, 0.1 mg/ml yeast; settings: protein: recombinant;recombinant; tags: none (His6-SUMO removed with Ulp1);none (His6-SUMO removed with Ulp1); copies: 1;1; label: 3'-Cy5
# [2] = target: T3, FBF-2 RBD+CT;LST-1 B peptide; experiment: as above; settings: protein: recombinant;recombinant; tags: none (His6-SUMO removed with Ulp1);none (His6-SUMO removed with Ulp1); copies: 1;1; label: 3'-Cy5
Molecule,-T∆S (FBF-2 RBD; replicate 1),∆G (FBF-2 RBD; replicate 1),∆H (FBF-2 RBD; replicate 1),-T∆S (FBF-2 RBD; replicate 2),∆G (FBF-2 RBD; replicate 2),∆H (FBF-2 RBD; replicate 2),Kd [1],Kd [2]
"LST-1 B: LST-1 B peptide, residues 67–98, expressed in E. coli (SSSPQQRSGLRSQKLHLTYIEKNKRVRAMIPQ; left off: His6-SUMO, N-terminal, cleaved)",7.7 kcal/mol,-9.85 kcal/mol,-17.5 kcal/mol,7.17 kcal/mol,-9.87 kcal/mol,-17 kcal/mol,–,–
AUCAUGUGCCAUAC (ssRNA) [gld-1 FBEa RNA (EMSA)],–,–,–,–,–,–,82 ± 18 nM,68 ± 21 nM
